24 variants from paper PMC7688916 (2020) can be followed below.

B1: GvpF fused to NGFP or CGFP (split-GFP) [Halobacterium salinarum PHH1] / GvpA fused to NGFP or CGFP (split-GFP) [Halobacterium salinarum PHH1] (parent complex)
chain 1: MTENLYTYGIIEQEDLELDVEGVAGAEQVYTVDYKTLSAVVSDIDTTDPERTDEDVEAHNNVLQEVLKHEEERTVVPMSFGMAFKSARTLKGVLRGARRALRSTLNDIEGTVELGVKILGPGDDTVPREEIQENVTDQLADLSINETENDLFTDRLIINKSYLVDFEKRDAFDSAIDDVEAEYDELTIQYTGPWPPYNFVDIHIGAEQQQGGR
chain 2: MAQPDSSGLAEVLDRVLDKGVVVDVWARVSLVGIEILTVEARVVAASVDTFLHYAEEIAKIEQAELTAGAEAAPEA

In this test the parent is B1. Put plainly: split-GFP; in Hfx. volcanii; FN fusion protein used as interaction partner; two biological and three technical replicates; parent: 20; read off a plot.
In the case of chain 2 R15A, the response was ~5.3 relative fluorescence.
chain 2 Y54A: the response was ~14 relative fluorescence.
Turning to chain 2 H53A, the response is ~12 relative fluorescence.
With chain 2 L17A the figure was ~13 relative fluorescence; with chain 2 E11A, ~11 relative fluorescence; with chain 2 R42A, ~12 relative fluorescence.
For the variant chain 2 R42E, the response is ~12 relative fluorescence.
With chain 2 D5A the figure was ~10 relative fluorescence; with chain 2 A46Y, ~11 relative fluorescence; with chain 2 G33V, ~5.6 relative fluorescence.
As for chain 2 E57A, the figure is ~12 relative fluorescence; as for chain 2 A64Y, ~14 relative fluorescence; as for chain 2 I61A, ~16 relative fluorescence.
In the case of chain 2 A41E, the response was ~19 relative fluorescence.
chain 2 D14A: the response was ~13 relative fluorescence.
chain 2 E65A: the response is ~13 relative fluorescence.
With chain 2 L52E the figure was ~19 relative fluorescence; with chain 2 A45Y, ~9 relative fluorescence.
As for chain 2 W26A, the figure is ~19 relative fluorescence; as for chain 2 V29D, ~19 relative fluorescence; as for chain 2 T38A, ~13 relative fluorescence.
chain 2 A27E: the response is ~5.2 relative fluorescence.
As for chain 2 K19D, the figure is ~5.4 relative fluorescence; as for chain 2 K19A, ~9.8 relative fluorescence.
